Results reported in patent publication US20250250357A1 (NANJING ZAIMING PHARMACEUTICAL, published 2025).

T1: human MSLN-R1-his protein (human, UniProt Q13421 296-390)
T1 construct: also called hMSLN-R1-his; human MSLN-R1 protein; not shown: His tag
T1 chain: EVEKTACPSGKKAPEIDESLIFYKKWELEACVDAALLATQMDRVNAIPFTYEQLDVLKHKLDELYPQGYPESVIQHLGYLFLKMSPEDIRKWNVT


How the values were obtained:
[1] = molecular target: T2, human MSLN-FL-his protein (human, UniProt Q13421 296-580); assay: ELISA, coated antigen; antibody 1 nM
T2 construct: also called hMSLN-FL-his; human MSLN full-length protein; not shown: His tag
Target sequence in this assay (Q13421 other isoform, or with tags, fused parts or gaps): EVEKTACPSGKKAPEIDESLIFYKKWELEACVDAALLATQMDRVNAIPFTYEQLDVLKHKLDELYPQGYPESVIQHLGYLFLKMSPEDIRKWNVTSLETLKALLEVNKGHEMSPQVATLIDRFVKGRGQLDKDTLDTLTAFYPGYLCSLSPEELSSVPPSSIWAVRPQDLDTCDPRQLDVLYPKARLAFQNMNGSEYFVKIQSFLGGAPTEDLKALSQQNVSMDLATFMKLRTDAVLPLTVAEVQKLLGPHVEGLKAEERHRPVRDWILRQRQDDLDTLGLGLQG

[2] = molecular target: T1, human MSLN-R1-his protein; assay: ELISA, coated antigen; antibody 1 nM
Protocol: (§1) The plate was sealed with a plastic film and incubated at 4° C. overnight. The next day, the plate was washed twice with PBST, and a blocking buffer [PBS+2% (w/w) BSA] was added for blocking at room temperature for 2 h. The blocking buffer was discarded, and a chimeric antibody or negative control antibody serially diluted from 100 nM was added at 50 μL/well. After incubation at 37° C. for 2 h, the plate was washed 3 times with PBST. […] After incubation at 37° C. for 2 h, the plate was washed 5 times with PBST. A TMB substrate was added at 50 μL/well for incubation at room temperature for 5-10 min, and then a stop solution (1.0 N HCl) was added at 50 μL/well.

[3] = molecular target: T2, human MSLN-FL-his protein; assay: ELISA, coated antigen; antibody 10 nM
Target sequence in this assay (Q13421 other isoform, or with tags, fused parts or gaps): as above
Protocol: as §1

[4] = molecular target: T1, human MSLN-R1-his protein; assay: ELISA, coated antigen; antibody 10 nM
Protocol: as §1

[5] = molecular target: T2, human MSLN-FL-his protein; assay: ELISA, coated antigen; antibody 0.1 nM
Target sequence in this assay (Q13421 other isoform, or with tags, fused parts or gaps): as above
Protocol: as §1

[6] = molecular target: T2, human MSLN-FL-his protein; assay: ELISA, coated antigen; antibody 100 nM
Target sequence in this assay (Q13421 other isoform, or with tags, fused parts or gaps): as above
Protocol: as §1

[7] = molecular target: T1, human MSLN-R1-his protein; assay: ELISA, coated antigen; antibody 0.1 nM
Protocol: as §1

[8] = molecular target: T1, human MSLN-R1-his protein; assay: ELISA, coated antigen; antibody 100 nM
Protocol: as §1

[9] = molecular target: T2, human MSLN-FL-his protein; assay: ELISA, coated antigen; antibody 0.01 nM
Target sequence in this assay (Q13421 other isoform, or with tags, fused parts or gaps): as above
Protocol: as §1

[10] = molecular target: T1, human MSLN-R1-his protein; assay: ELISA, coated antigen; antibody 0.01 nM
Protocol: as §1

[11] = molecular target: T2, human MSLN-FL-his protein; assay: ELISA, coated antigen; antibody 0.001 nM
Target sequence in this assay (Q13421 other isoform, or with tags, fused parts or gaps): as above
Protocol: as §1

[12] = molecular target: T1, human MSLN-R1-his protein; assay: ELISA, coated antigen; antibody 0.001 nM
Protocol: as §1

[13] = molecular target: T2, human MSLN-FL-his protein; assay: ELISA, coated antigen; antibody 0.0001 nM
Protocol: as §1

[14] = molecular target: T1, human MSLN-R1-his protein; assay: ELISA, coated antigen; antibody 0.0001 nM
Protocol: as §1

[15] = molecular target: T2, human MSLN-FL-his protein; assay: ELISA, coated antigen; no antibody (blank, column 'none')
Protocol: as §1

[16] = molecular target: T1, human MSLN-R1-his protein; assay: as above
Protocol: as §1

[17] = molecular target: T3, human MSLN-FL-his protein (human, UniProt Q13421 296-580); assay: competitive ELISA; coated 2ug/ml F3.23.1
T3 construct: made in HEK293E cells, purified on nickel column; also called hMSLN-FL-his; human MSLN full-length protein; not shown: His tag

[18] = molecular target: T3, human MSLN-FL-his protein; assay: competitive ELISA; coated 2ug/ml F3.51.8
Protocol: (§2) In order to identify antigen-binding sites of antibodies, MSLN chimeric antibodies were grouped using competitive ELISA.
(§3) The chimeric antibodies were diluted to 2 μg/mL with PBS and allowed to coat 96-well high-adsorption ELISA plates at 50 μL/well. After the plates were coated at 4° C. overnight, 250 μL of a blocking buffer (PBS containing 2% (w/w) BSA) was added for two hours of blocking at room temperature. 40 μg/mL of the antibodies to be tested were added, and then the human MSLN-FL-His protein with an EC₈₀ concentration corresponding to each of the antibodies to be tested was added for incubation for 2 h. The plates were washed 5 times with PBS, an HRP-labeled anti-His secondary antibody (purchased from Genescript, Cat. No. A00612) was then added for incubation for 1 h, and the plates were washed 5 times again. A TMB substrate was added at 50 μL/well, and after 10 minutes of incubation at room temperature, a stop solution (1.0 M HCl) was added at 50 μL/well. OD₄₅₀ nm values were read using an ELISA plate reader (Insight, purchased from PerkinElmer), and the competition rate between the antibodies was calculated according to the OD₄₅₀ nm values using a formula.

[19] = molecular target: T3, human MSLN-FL-his protein; assay: competitive ELISA; coated 2ug/ml F3.45.21
Protocol: as §2, §3

[20] = molecular target: T3, human MSLN-FL-his protein; assay: competitive ELISA; coated 2ug/ml F3.74.20
Protocol: as §2, §3

[21] = molecular target: T3, human MSLN-FL-his protein; assay: competitive ELISA; coated 2ug/ml F3.80.22
Protocol: as §2, §3

[22] = molecular target: T3, human MSLN-FL-his protein; assay: competitive ELISA; coated 2ug/ml F4-127.10
Protocol: as §2, §3

[23] = molecular target: T3, human MSLN-FL-his protein; assay: SPR (Biacore), antibody captured on Protein A chip;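 also: measured at 25 °C, analyte injected 240 s in five twofold dilutions from 200 nM, dissociation up to 600 s, double-referenced, fitted with Langmuir 1:1 model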
[24] = molecular target: T3, human MSLN-FL-his protein; assay: competitive ELISA; coated 2ug/ml Tab108 (R3)
Protocol: as §2, §3

[25] = molecular target: T3, human MSLN-FL-his protein; assay: competitive ELISA; coated 2ug/ml Tab142 (R1)
Protocol: as §2, §3

| competition rate [17] | competition rate [18] | competition rate [19] | competition rate [20] | competition rate [21] | competition rate [22] | Kd [23] | koff [23] | competition rate [24] | competition rate [25] | kon [23] | other results | Binder |
| --- | --- | --- | --- | --- | --- | --- | --- | --- | --- | --- | --- | --- |
| – | – | – | – | – | – | – | – | – | – | – | OD450 [1]: 2.35; OD450 [2]: 0.04; OD450 [3]: 2.59; OD450 [4]: 0.04; OD450 [5]: 1.79; OD450 [6]: 2.61; OD450 [7]: 0.04; OD450 [8]: 0.06; OD450 [9]: 0.48; OD450 [10]: 0.05; OD450 [11]: 0.11; OD450 [12]: 0.04; OD450 [13]: 0.06; OD450 [14]: 0.04; OD450 [15]: 0.05; OD450 [16]: 0.05 | S009-F1.62.9 human-murine chimeric antibody (antibody, human IgG1, kappa, V domains shown, Chimeric IgG1/kappa) VH: EVQLQQSGADLVKPGASVKLSCTVFGLNFKDTFMHWVRQRPEQGLEWIGRIDPANDNSIYGPKFQDKATITADTSSNTAYLHLSSLTSEDTAVYYCLYFDNWGHGTTLTVSS VL: DIVMTQAASSEPVTPGESVSISCRSDKSLLHSNGHNYLYWFLQRPGQSPHLLIYRMSNLASGVPDRFSGSGSGTAFTLRISRVEAEDVGVYYCMQHLEYPLTFGAGTKLELKR |
| 95% | 94% | 89% | 93% | -36% | 31% | 689 nM | 0.000703 s⁻¹ | 35% | -25% | – | – | S009-F3.23.1 (antibody, human IgG1, kappa, V domains shown, human-murine chimeric antibody, human IgG1/kappa constant regions) VH: QVQLQQSGADLVRPGASVTLSCKASGYTFTDYEMHWVKQTPVHGLEWIGAIDPETGDTVYNQNFKGKAILTADKSSSTAYMELRSLTSEDSAVYYCTRYGYDWGWGQGTTLTVSS VL: not shown |
| 99% | 96% | 92% | 96% | -26% | 37% | 1.5 nM | 0.00083 s⁻¹ | 32% | -38% | 552000 M⁻¹ s⁻¹ | – | S009-F3.45.21 (antibody, human IgG1, kappa, V domains shown, human-murine chimeric antibody, human IgG1/kappa constant regions) VH: DVQLQESGPGLVKPSQSLSLTCSVTGDSITSGYYWNWIRQFPGNKLEWMGFIRFDGTNNYNPSLKNRISITRDTSKNQFFLKLNSVTTEDTATYYCAREGSYAPAWFAYWGQGTLVTVSA VL: QIVLTQSPAIMSASPGEKVTMTCSASSSLSYMYWYQQKPGSSPRLLIYDTSNLASGVPVRFSGSGSGTSYSLTISRMEAEDAATYYCQQWSSYPPTFGGGTKLEIKR |
| 101% | 102% | 98% | 101% | -17% | 78% | 142 nM | 0.00035 s⁻¹ | 46% | -34% | 2470 M⁻¹ s⁻¹ | – | S009-F3.51.8 (antibody, human IgG1, kappa, V domains shown, human-murine chimeric antibody, human IgG1/kappa constant regions) VH: QVQLQQSGAELVRPGASVTLSCKASGYTFTDYEMHWVKQTPVHGLEWIGGFDPETGGTAHNQKFKGKAILTADKSSSTAYMELRSLTSEDSAVYYCSNYGSIWGDCWGQGTSVTVSS VL: not shown |
| 100% | 96% | 94% | 98% | -15% | 33% | 4.92 nM | 5.04e-05 s⁻¹ | 34% | -28% | 10300 M⁻¹ s⁻¹ | – | S009-F3.74.20 (antibody, human IgG1, kappa, V domains shown, human-murine chimeric antibody, human IgG1/kappa constant regions) VH: RVQLQQSGAELVRPGASVTLSCKASGYTFTDSEMHWVKQTPVHGLEWIGAIDPEIDGTAYNQNFRDKAILTADKSSSTAYMELRSLTSEDSAVYYCTTYFGSGYGYFDVWGTGTTVTVSS VL: DVVMTQTPLSLSVSLGDQASISCRSSQSLVYSNGNTYLHWFLQKPGQSPKLLIYKVSNRFSGVPDRFSGSGSGTDFTLKINRVEAEDLGVYFCSQSTHIPFTFGAGTKLELKR |
| 88% | 87% | 84% | 91% | -5% | 16% | 171 nM | 0.000433 s⁻¹ | -37% | -27% | 2530 M⁻¹ s⁻¹ | – | S009-F4-127.10 (antibody, human IgG1, kappa, V domains shown, human-murine chimeric antibody, human IgG1/kappa constant regions) VH: EVQLQQSGPVLVKPGASVKMSCKASGYTFTDYYMNWVKQSHGKSPEWIGVINPYNDVISYNQKFKGKATLTVDKSSSTAYMELNSLTSEDSAVYYCANYGSSYYAMDYWGQGTSVTVSS VL: DVVMTQTPLSLSVSLGDQASISCRSSQSLVHSNGNTYLQWSLQKPGQSPNLLIYKVSNRFSGVPDRFSGSGSGTDFTLKISRVEAEDLGVYFCSQTTHVPFTFGGGTKLEIRR |
| -109% | 43% | -67% | -12% | 63% | -22% | 151 nM | 0.000332 s⁻¹ | 35% | 81% | 2200 M⁻¹ s⁻¹ | – | S009-F3.80.22 (antibody, human IgG1, kappa, V domains shown, human-murine chimeric antibody, human IgG1/kappa constant regions) VH: QVQLQQSGAELVRPGASVTLSCKASGYTFTDYEIHWVKQTPVHGLEWIGAFDPEIGGSAYNQKFKDRATLTADKSSSTAYMELHSLTAEDSAVYYCTDYYGSSSGYFDVWGTGTTVTVSS VL: DVVMTQTPLSLPVSLGDQASISCRSSQSLEHNNGNTYLHWFLHKPGQSPKLLIYKVSNRFSGVPDRFSGSGSGTDFTLKISRVEAEDLGVYFCSQSTHVPFTFGSGTKLEIKR |
